Measurements published in patent US20210388087A1 (Chugai, published 2021).
Residue numbers refer to the chain shown, from its start. Numbers in names are those of the source.

B1: H183/L072 VH I51V (antibody, name in Kabat numbering, V domains shown)
VH: QVQLVESGGGLVQPGRSLRLSCAASGFTFSNAWMHWVRQAPGKGLEWVAQVKDKGNAYAAYYAPSVKGRFTISRDDSKNSIYLQMNSLKTEDTAVYYCHYVHYASASTVLPAFGVDAWGQGTTVTVSS
VL: DIVMTQSPLSLPVTPGEPASISCQASQELVHMNRNTYLHWYQQKPGQAPRLLIYKVSNRFPGVPDRFSGSGSGTDFTLKISRVEAEDVGVYYCAQGTSVPFTFGQGTKLEIK
B2: H183/L072 VH K52bI (antibody, name in Kabat numbering, V domains shown)
VH: B1 VH with V51I, K54I
VL: B1 VL
B3: H183/L072 VH K52G (antibody, name in Kabat numbering, V domains shown)
VH: B1 VH with V51I, K52G
VL: B1 VL
B4: H183/L072 VH K52bG (antibody, name in Kabat numbering, V domains shown)
VH: B1 VH with V51I, K54G
VL: B1 VL
B5: H183/L072 VH K52A (antibody, name in Kabat numbering, V domains shown)
VH: B1 VH with V51I, K52A
VL: B1 VL
B6: H183/L072 VH K64M (antibody, name in Kabat numbering, V domains shown)
VH: B1 VH with V51I, K67M
VL: B1 VL
B7: H183/L072 VH K52W (antibody, name in Kabat numbering, V domains shown)
VH: B1 VH with V51I, K52W
VL: B1 VL
B8: H183/L072 VH K52F (antibody, name in Kabat numbering, V domains shown)
VH: B1 VH with V51I, K52F
VL: B1 VL
B9: H183/L072 VH K52P (antibody, name in Kabat numbering, V domains shown)
VH: B1 VH with V51I, K52P
VL: B1 VL
B10: H183/L072 VH K52S (antibody, name in Kabat numbering, V domains shown)
VH: B1 VH with V51I, K52S
VL: B1 VL
B11: H183/L072 VH K52bW (antibody, name in Kabat numbering, V domains shown)
VH: B1 VH with V51I, K54W
VL: B1 VL
B12: H183/L072 VH K64P (antibody, name in Kabat numbering, V domains shown)
VH: B1 VH with V51I, K67P
VL: B1 VL
B13: H183/L072 VH I51Y (antibody, name in Kabat numbering, V domains shown)
VH: B1 VH with V51Y
VL: B1 VL
B14: H183/L072 VH K52E (antibody, name in Kabat numbering, V domains shown)
VH: B1 VH with V51I, K52E
VL: B1 VL
B15: H183/L072 VH K52Q (antibody, name in Kabat numbering, V domains shown)
VH: B1 VH with V51I, K52Q
VL: B1 VL
B16: H183/L072 VH I51W (antibody, name in Kabat numbering, V domains shown)
VH: B1 VH with V51W
VL: B1 VL
B17: H183/L072 VH K52M (antibody, name in Kabat numbering, V domains shown)
VH: B1 VH with V51I, K52M
VL: B1 VL
B18: H183/L072 VH K64I (antibody, name in Kabat numbering, V domains shown)
VH: B1 VH with V51I, K67I
VL: B1 VL
B19: H183/L072 VH K52bH (antibody, name in Kabat numbering, V domains shown)
VH: B1 VH with V51I, K54H
VL: B1 VL
B20: H183/L072 VH K52T (antibody, name in Kabat numbering, V domains shown)
VH: B1 VH with V51I, K52T
VL: B1 VL
B21: H183/L072 VH K52bQ (antibody, name in Kabat numbering, V domains shown)
VH: B1 VH with V51I, K54Q
VL: B1 VL
B22: H183/L072 VH K52V (antibody, name in Kabat numbering, V domains shown)
VH: B1 VH with V51I, K52V
VL: B1 VL
B23: H183/L072 VH K52bN (antibody, name in Kabat numbering, V domains shown)
VH: B1 VH with V51I, K54N
VL: B1 VL
B24: H183/L072 VH K52bS (antibody, name in Kabat numbering, V domains shown)
VH: B1 VH with V51I, K54S
VL: B1 VL
B25: H183/L072 VH K52I (antibody, name in Kabat numbering, V domains shown)
VH: B1 VH with V51I, K52I
VL: B1 VL
B26: H183/L072 VH K52bE (antibody, name in Kabat numbering, V domains shown)
VH: B1 VH with V51I, K54E
VL: B1 VL
B27: H183/L072 VH K52N (antibody, name in Kabat numbering, V domains shown)
VH: B1 VH with V51I, K52N
VL: B1 VL
B28: H183/L072 VH K52bA (antibody, name in Kabat numbering, V domains shown)
VH: B1 VH with V51I, K54A
VL: B1 VL
B29: H183/L072 VH K52H (antibody, name in Kabat numbering, V domains shown)
VH: B1 VH with V51I, K52H
VL: B1 VL
B30: H183/L072 VH K52bV (antibody, name in Kabat numbering, V domains shown)
VH: B1 VH with V51I, K54V
VL: B1 VL
B31: H183/L072 VH K52bR (antibody, name in Kabat numbering, V domains shown)
VH: B1 VH with V51I, K54R
VL: B1 VL
B32: H183/L072 VH K52bL (antibody, name in Kabat numbering, V domains shown)
VH: B1 VH with V51I, K54L
VL: B1 VL
B33: H183/L072 VH K52bP (antibody, name in Kabat numbering, V domains shown)
VH: B1 VH with V51I, K54P
VL: B1 VL
B34: H183/L072 VH K52bM (antibody, name in Kabat numbering, V domains shown)
VH: B1 VH with V51I, K54M
VL: B1 VL
B35: H183/L072 VH K52bD (antibody, name in Kabat numbering, V domains shown)
VH: B1 VH with V51I, K54D
VL: B1 VL
B36: H183/L072 VH L100dA (antibody, name in Kabat numbering, V domains shown)
VH: B1 VH with V51I, L110A
VL: B1 VL
B37: H183/L072 VH K52R (antibody, name in Kabat numbering, V domains shown)
VH: B1 VH with V51I, K52R
VL: B1 VL
B38: H183/L072 VH K52bF (antibody, name in Kabat numbering, V domains shown)
VH: B1 VH with V51I, K54F
VL: B1 VL
B39: H183/L072 VH K52L (antibody, name in Kabat numbering, V domains shown)
VH: B1 VH with V51I, K52L
VL: B1 VL
B40: H183/L072 VH K64A (antibody, name in Kabat numbering, V domains shown)
VH: B1 VH with V51I, K67A
VL: B1 VL
B41: H183/L072 VH K64L (antibody, name in Kabat numbering, V domains shown)
VH: B1 VH with V51I, K67L
VL: B1 VL
B42: H183/L072 VH K52D (antibody, name in Kabat numbering, V domains shown)
VH: B1 VH with V51I, K52D
VL: B1 VL
B43: H183/L072 VH K52bT (antibody, name in Kabat numbering, V domains shown)
VH: B1 VH with V51I, K54T
VL: B1 VL
B44: H183/L072 VH K52bY (antibody, name in Kabat numbering, V domains shown)
VH: B1 VH with V51I, K54Y
VL: B1 VL
B45: H183/L072 VH K52Y (antibody, name in Kabat numbering, V domains shown)
VH: B1 VH with V51I, K52Y
VL: B1 VL

Biological target: T1, Human CD3eg linker (human)
T1 construct: Single chain: epsilon and gamma subunits of human CD3 joined by a 29-mer linker, Flag-tag at the C-terminus; also called recombinant human CD3
T1 chain: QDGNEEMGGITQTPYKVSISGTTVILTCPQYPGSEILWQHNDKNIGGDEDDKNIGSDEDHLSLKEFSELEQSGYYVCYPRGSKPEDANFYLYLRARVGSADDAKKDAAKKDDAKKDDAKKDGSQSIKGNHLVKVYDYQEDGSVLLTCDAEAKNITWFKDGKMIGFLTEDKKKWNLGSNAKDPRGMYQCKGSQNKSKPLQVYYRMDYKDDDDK
Experiment: Biacore SPR, vs template H183/L072

In order of falling “fold change of affinity” value:
1. B12  1.6 fold
2. B31  1.2 fold
3. B36  1.2 fold
4. B1  1.1 fold
5. B6  1.1 fold
6. B41  1.1 fold
7. B18  1 fold
8. B40  1 fold
9. B2  0.8 fold
10. B4  0.8 fold
11. B37  0.8 fold
12. B19  0.7 fold
13. B21  0.7 fold
14. B24  0.7 fold
15. B28  0.7 fold
16. B44  0.7 fold
17. B11  0.6 fold
18. B17  0.6 fold
19. B30  0.6 fold
20. B32  0.6 fold
21. B20  0.5 fold
22. B23  0.5 fold
23. B26  0.5 fold
24. B33  0.5 fold
25. B34  0.5 fold
26. B38  0.4 fold
27. B15  0.3 fold
28. B43  0.3 fold
29. B3  0 fold
30. B5  0 fold
31. B7  0 fold
32. B8  0 fold
33. B9  0 fold
34. B10  0 fold
35. B13  0 fold
36. B14  0 fold
37. B16  0 fold
38. B22  0 fold
39. B25  0 fold
40. B27  0 fold
41. B29  0 fold
42. B35  0 fold
43. B39  0 fold
44. B42  0 fold
45. B45  0 fold
